In patent publication US20200095341A1 (UNIVERSITEIT TWENTE, published 2020):
Blank lines part the entries; values can stand above or below the binder they belong to. Ends that are not written are not given here.

What was measured:
[1] = target: hTGFB1 (Peprotech) (human, UniProt P01137 279-390); assay: cell-based or functional assay
[2] = target: T1, hVEGF (PeproTech) (human, UniProt P15692-4 27-191, limits assumed); assay: immunofluorescence against hVEGF on peptide-functionalized PCL films, 1 µg/mL hVEGF
T1 construct: Commercial growth factor; also called ihVEGF; shVEGF

[3] = target: T1, hVEGF (PeproTech); assay: immunofluorescence against hVEGF on peptide-functionalized POLY-TAPE, 1 µg/mL hVEGF
[4] = target: T1, hVEGF (PeproTech); assay: immunofluorescence against hVEGF on peptide-functionalized Chondro-Gide, 1 µg/mL hVEGF
[5] = target: T1, hVEGF (PeproTech); assay: immunofluorescence against hVEGF on peptide-functionalized Collagen Meniscus Implant, 1 µg/mL hVEGF
[6] = target: hBMP-2 (PeproTech) (human, UniProt P12643 283-396); assay: cell-based or functional assay
[7] = target: T2, endogenous BMP-2 (rat) (rat, UniProt P49001 280-393, limits assumed); assay: immunofluorescence against BMP-2 of PCL films implanted subcutaneously in rats for 7 days
T2 construct: also called BMP-2 released during inflammation
T2 sequence (P49001 280-393 limits assumed): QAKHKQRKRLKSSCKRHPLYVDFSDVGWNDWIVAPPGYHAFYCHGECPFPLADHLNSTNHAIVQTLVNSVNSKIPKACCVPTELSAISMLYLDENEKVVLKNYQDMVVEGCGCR

Sequence of hBMP-2 (PeproTech) (P12643 283-396 limits assumed): as the sequence (P49001 280-393 limits assumed) above
T1 sequence (P15692 other isoform, or with tags, fused parts or gaps limits assumed): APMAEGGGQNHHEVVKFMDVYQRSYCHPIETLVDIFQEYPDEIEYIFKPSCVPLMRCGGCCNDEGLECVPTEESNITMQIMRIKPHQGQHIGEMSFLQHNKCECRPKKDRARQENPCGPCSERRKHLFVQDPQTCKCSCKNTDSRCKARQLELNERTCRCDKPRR
Sequence of hTGFB1 (Peprotech) (P01137 279-390 limits assumed): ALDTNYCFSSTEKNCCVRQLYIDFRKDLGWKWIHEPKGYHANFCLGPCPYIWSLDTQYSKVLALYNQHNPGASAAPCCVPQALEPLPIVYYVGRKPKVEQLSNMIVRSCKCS

B1: TGFB1 binding peptide KGLPLGNSH (peptide)
peptide: Ac-KGLPLGNSH-NH2
modifications: not fully specified (residue 1); also: lysine side chain covalently coupled to PCL film
luciferase activity of TGFB1 reporter cell line (MLEC, PAI-1 promoter), fold over same films without hTGFB1 incubation [1]: 9 fold

B3: BMP-2-binding peptide KGYPVHPST (peptide)
peptide: Ac-KGYPVHPST
modifications: not fully specified (residue 1); also: lysine side chain covalently coupled to film or tape
notes: also called YPVHPST with an extra glycine and lysine at the N-termini
ALP produced by C2C12 after 7 days, fold over controls; functionalized films incubated with 5.0 µg hBMP-2 [6]: 12.7 fold
ALP production by C2C12, ratio to hBMP-2 nonspecifically adsorbed on native films [6]: 2.4 fold
luciferase of BMP-2 reporter cell line (C2C12 Luc), fold increase; films incubated with 500 ng hBMP-2 [6]: 5.3 fold
luciferase of BMP-2 reporter cell line (C2C12 Luc, ID1 promoter), normalized to films without hBMP-2; films incubated with 500 ng hBMP-2 [6]: 10.4 fold (normalized luciferase)
binding result [7]: binds

Second part, the binder after the results:

fluorescence intensity, fold over non-functionalized films incubated with hVEGF [2]: 7 fold
fluorescence signal, fold over native POLY-TAPE with hVEGF [3]: 2.3 fold
fluorescence signal, fold over oxygen plasma treated POLY-TAPE with hVEGF [3]: 1.5 fold
fluorescence signal, fold over Chondro-Gide functionalized with NHS/EDC and incubated with hVEGF [4]: 2.2 fold
fluorescence signal, fold (reference taken as native CMI incubated with hVEGF) [5]: 3.3 fold
B2: VEGF-binding peptide KGSWWAPFH (peptide)
peptide: Ac-KGSWWAPFH
modifications: not fully specified (residue 1); also: lysine side chain covalently coupled to film or device
notes: also called SWWAPFH with an extra glycine and lysine at the N-termini

luciferase activity of TGFB1 reporter cell line (MLEC, PAI-1 promoter), fold over same films without hTGFB1 incubation [1]: 3 fold
B4: scrambled peptide KGHNLGLPS (peptide)
peptide: Ac-KGHNLGLPS-NH2
modifications: not fully specified (residue 1); also: lysine side chain covalently coupled to PCL film
